Measured values published in paper PMC6370633, “Mechanistic Insight Into the Interaction Between Helicobacter pylori Urease Subunit α and Its Molecular Chaperone Hsp60” (Frontiers in Microbiology, 2019).

T1: UreA-GST (UreA fused with GST tag on its C-terminus) (Helicobacter pylori 26695, UniProt P14916 1-238)
T1 construct: source: E. coli BL21(DE3), supernatant immobilized on glutathione Sepharose 4B beads; not shown: GST, C-terminal, kept
T1 sequence: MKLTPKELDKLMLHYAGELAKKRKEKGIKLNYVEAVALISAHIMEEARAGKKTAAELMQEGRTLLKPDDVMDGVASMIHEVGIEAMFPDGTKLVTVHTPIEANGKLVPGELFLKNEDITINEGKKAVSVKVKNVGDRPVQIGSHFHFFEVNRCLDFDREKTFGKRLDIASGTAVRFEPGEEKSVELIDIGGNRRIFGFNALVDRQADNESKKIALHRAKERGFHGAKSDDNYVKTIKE

B1: Helicobacter pylori Hsp60 with a 6 × His tag on its C terminus (natural protein, Helicobacter pylori 26695, UniProt P42383 1-546, looked up)
chain: MAKEIKFSDSARNLLFEGVRQLHDAVKVTMGPRGRNVLIQKSYGAPSITKDGVSVAKEIELSCPVANMGAQLVKEVASKTADAAGDGTTTATVLAYSIFKEGLRNITAGANPIEVKRGMDKAAEAIINELKKASKKVGGKEEITQVATISANSDHNIGKLIADAMEKVGKDGVITVEEAKGIEDELDVVEGMQFDRGYLSPYFVTNAEKMTAQLDNAYILLTDKKISSMKDILPLLEKTMKEGKPLLIIAEDIEGEALTTLVVNKLRGVLNIAAVKAPGFGDRRKEMLKDIAILTGGQVISEELGLSLENAEVEFLGKAGRIVIDKDNTTIVDGKGHSHDVKDRVAQIKTQIASTTSDYDKEKLQERLAKLSGGVAVIKVGAASEVEMKEKKDRVDDALSATKAAVEEGIVIGGGAALIRAAQKVHLNLHDDEKVGYEIIMRAIKAPLAQIAINAGYDGGVVVNEVEKHEGHFGFNASNGKYVDMFKEGIIDPLKVERIALQNAVSVSSLLLTTEATVHEIKEEKAAPAMPDMGGMGGMGGMGGMM
notes: also called recombinant Hsp60; source: E. coli BL21(DE3), purified (Ni-NTA, Sephadex G-75 gel filtration); not shown: His6, C-terminal, kept

target: T1, UreA-GST (UreA fused with GST tag on …); assay: pull-down; GST-fused proteins on glutathione Sepharose 4B beads (20 μl), incubated with 0.4 ml purified Hsp60 (1 mg/ml in 50 mM Tris-HCl, pH 8.0) at 4°C for 2 h; washed four times; Western blot (anti-His) and SDS-PAGE; conditions: both partners purified

| Binder | stoichiometry N |
| --- | --- |
| B1 | ~1 Hsp60:UreA-GST |

target: B1; assay: SPR; BIAcore T100; Hsp60 immobilized on CM5 chip (~600 RU); UreA-His or mutants as analytes (0.36-2.19 μM); PBS pH 7.4, 30 μl/min, 25°C; kinetic analysis, global fit to 1:1 Langmuir model; conditions: both partners purified

| Binder | Kd [nM] | koff [s⁻¹] | kon [M⁻¹ s⁻¹] |
| --- | --- | --- | --- |
| UreA-His (urease α subunit fused with a His tag on its C-terminus) (natural protein, also called wild-type UreA-His; urease subunit α; source: E. coli BL21(DE3), purified (Ni-NTA); not shown: His tag, C-terminal, kept) MKLTPKELDKLMLHYAGELAKKRKEKGIKLNYVEAVALISAHIMEEARAGKKTAAELMQEGRTLLKPDDVMDGVASMIHEVGIEAMFPDGTKLVTVHTPIEANGKLVPGELFLKNEDITINEGKKAVSVKVKNVGDRPVQIGSHFHFFEVNRCLDFDREKTFGKRLDIASGTAVRFEPGEEKSVELIDIGGNRRIFGFNALVDRQADNESKKIALHRAKERGFHGAKSDDNYVKTIKE | 17 | 0.000126 | 7286 ± 15 |
| UreA-His K26A (natural protein, source: E. coli BL21(DE3), purified as wild-type UreA-His; not shown: His tag, C-terminal, kept) MKLTPKELDKLMLHYAGELAKKRKEAGIKLNYVEAVALISAHIMEEARAGKKTAAELMQEGRTLLKPDDVMDGVASMIHEVGIEAMFPDGTKLVTVHTPIEANGKLVPGELFLKNEDITINEGKKAVSVKVKNVGDRPVQIGSHFHFFEVNRCLDFDREKTFGKRLDIASGTAVRFEPGEEKSVELIDIGGNRRIFGFNALVDRQADNESKKIALHRAKERGFHGAKSDDNYVKTIKE | 460 | 0.0122 | 26200 ± 250 |
| UreA-His R23A (natural protein, source: E. coli BL21(DE3), purified as wild-type UreA-His; not shown: His tag, C-terminal, kept) MKLTPKELDKLMLHYAGELAKKAKEKGIKLNYVEAVALISAHIMEEARAGKKTAAELMQEGRTLLKPDDVMDGVASMIHEVGIEAMFPDGTKLVTVHTPIEANGKLVPGELFLKNEDITINEGKKAVSVKVKNVGDRPVQIGSHFHFFEVNRCLDFDREKTFGKRLDIASGTAVRFEPGEEKSVELIDIGGNRRIFGFNALVDRQADNESKKIALHRAKERGFHGAKSDDNYVKTIKE | 280 | 0.00144 | 5070 ± 85 |
| UreA-His K22A (natural protein, source: E. coli BL21(DE3), purified as wild-type UreA-His; not shown: His tag, C-terminal, kept) MKLTPKELDKLMLHYAGELAKARKEKGIKLNYVEAVALISAHIMEEARAGKKTAAELMQEGRTLLKPDDVMDGVASMIHEVGIEAMFPDGTKLVTVHTPIEANGKLVPGELFLKNEDITINEGKKAVSVKVKNVGDRPVQIGSHFHFFEVNRCLDFDREKTFGKRLDIASGTAVRFEPGEEKSVELIDIGGNRRIFGFNALVDRQADNESKKIALHRAKERGFHGAKSDDNYVKTIKE | 310 | 0.00179 | 5840 ± 146 |
| UreA-His K66A (natural protein, source: E. coli BL21(DE3), purified as wild-type UreA-His; not shown: His tag, C-terminal, kept) MKLTPKELDKLMLHYAGELAKKRKEKGIKLNYVEAVALISAHIMEEARAGKKTAAELMQEGRTLLAPDDVMDGVASMIHEVGIEAMFPDGTKLVTVHTPIEANGKLVPGELFLKNEDITINEGKKAVSVKVKNVGDRPVQIGSHFHFFEVNRCLDFDREKTFGKRLDIASGTAVRFEPGEEKSVELIDIGGNRRIFGFNALVDRQADNESKKIALHRAKERGFHGAKSDDNYVKTIKE | 210 | 0.00115 | 5400 ± 214 |
| UreA-His D68A (natural protein, source: E. coli BL21(DE3), purified as wild-type UreA-His; not shown: His tag, C-terminal, kept) MKLTPKELDKLMLHYAGELAKKRKEKGIKLNYVEAVALISAHIMEEARAGKKTAAELMQEGRTLLKPADVMDGVASMIHEVGIEAMFPDGTKLVTVHTPIEANGKLVPGELFLKNEDITINEGKKAVSVKVKNVGDRPVQIGSHFHFFEVNRCLDFDREKTFGKRLDIASGTAVRFEPGEEKSVELIDIGGNRRIFGFNALVDRQADNESKKIALHRAKERGFHGAKSDDNYVKTIKE | 2000 | 0.00227 | 1160 ± 41 |
| UreA-His Y15A (natural protein, source: E. coli BL21(DE3), purified as wild-type UreA-His; not shown: His tag, C-terminal, kept) MKLTPKELDKLMLHAAGELAKKRKEKGIKLNYVEAVALISAHIMEEARAGKKTAAELMQEGRTLLKPDDVMDGVASMIHEVGIEAMFPDGTKLVTVHTPIEANGKLVPGELFLKNEDITINEGKKAVSVKVKNVGDRPVQIGSHFHFFEVNRCLDFDREKTFGKRLDIASGTAVRFEPGEEKSVELIDIGGNRRIFGFNALVDRQADNESKKIALHRAKERGFHGAKSDDNYVKTIKE | 150 | 0.00164 | 11200 ± 287 |
| UreA-His E25A (natural protein, source: E. coli BL21(DE3), purified as wild-type UreA-His; not shown: His tag, C-terminal, kept) MKLTPKELDKLMLHYAGELAKKRKAKGIKLNYVEAVALISAHIMEEARAGKKTAAELMQEGRTLLKPDDVMDGVASMIHEVGIEAMFPDGTKLVTVHTPIEANGKLVPGELFLKNEDITINEGKKAVSVKVKNVGDRPVQIGSHFHFFEVNRCLDFDREKTFGKRLDIASGTAVRFEPGEEKSVELIDIGGNRRIFGFNALVDRQADNESKKIALHRAKERGFHGAKSDDNYVKTIKE | 140 | 0.00567 | 40200 ± 1670 |
